From patent publication US20110189194A1, “USE OF CD95 INHIBITORS FOR THE TREATMENT OF INFLAMMATORY DISORDERS” (Deutsches Krebsforschungszentrum Stiftung des offentlichen …, priority 2008, published 2011)
“Also recorded” adds a separate entry of the source.

Columns and labels:
[1] = treated within the first 8 h of injury, compared to placebo, naloxone, or MPSS at later time points; cited from earlier work
human CD95L = target: T1, human CD95L (Homo sapiens, UniProt P48023); assay: Neutralisation of human CD95L-T4 induced apoptosis on Jurkat cells (DEVD-AFC cleavage); assay type: cell-based; settings: 250 ng/ml human CD95L-T4
T1 construct: T4 (bacteriophage T4 fibritin foldon trimerisation domain)
T1 sequence (P48023 with tags, fused parts or gaps limits assumed): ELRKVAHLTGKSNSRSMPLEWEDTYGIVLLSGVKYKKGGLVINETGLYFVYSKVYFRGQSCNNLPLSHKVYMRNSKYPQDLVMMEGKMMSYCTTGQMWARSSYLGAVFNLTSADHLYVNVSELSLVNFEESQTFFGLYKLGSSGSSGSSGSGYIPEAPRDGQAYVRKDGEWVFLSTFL
Procedure: (§1) Mutation of R87S abrogates the ability of the CD95-RB69 protein to inhibit CD95L-mediated killing of Jurkat cells. Jurkat cells were incubated with 250 ng/ml of human (A) or mouse (B) CD95L-T4 in the presence of wild-type and mutant CD95-RB69 in duplicates for each concentration of the fusion proteins. Decreased cell death is represented by low DEVD-AFC cleavage rates.
(§2) While we were using a human CD95 fusion protein in mouse, we had to analyse the binding of the R87S based control-protein for the human CD95/murine CD95L-interaction prior to the studies performed. We addressed this question by examining the ability of the CD95-fusion proteins to neutralise the apoptosis inducing capacity of either human or mouse CD95L on Jurkat cells in vitro.

mouse CD95L = target: T2, mouse CD95L (Mus musculus, UniProt P41047); assay: Neutralisation of mouse CD95L-T4 induced apoptosis on Jurkat cells (DEVD-AFC cleavage); assay type: cell-based; settings: 250 ng/ml mouse CD95L-T4
T2 construct: T4 (bacteriophage T4 fibritin foldon trimerisation domain)
T2 sequence (P41047 with tags, fused parts or gaps limits assumed): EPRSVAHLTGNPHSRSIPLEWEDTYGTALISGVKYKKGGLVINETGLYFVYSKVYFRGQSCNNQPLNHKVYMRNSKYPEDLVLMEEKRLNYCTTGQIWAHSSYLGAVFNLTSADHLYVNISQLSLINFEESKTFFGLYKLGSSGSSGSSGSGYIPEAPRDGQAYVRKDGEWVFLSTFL
Procedure: as §1, §2

injured spinal cord [2] = assay: Immune cell infiltration into the injured spinal cord after SCI (flow cytometry); assay type: in vivo, mice
Procedure: SCI models: Transection injury of the spinal cord was performed as previously described (Demjen et al., 2004). For the crush injury model, forceps were held on the spinal cord for 15 seconds resulting in a lateral compression of the spinal cord (Plemel et al., 2008). Immediately following injury and for an additional week mice received antibiotics (Gentamycin, 5 ml/kg of a 0.2 mg/ml solution) to prevent infections. Post-operative care included housing of the animals at 27° C., food and water ad libitum, and manual expression of the bladders once daily.
(§3) Mice were treated intravenously 5 minutes after SCI or induction of thioglycolate-induced peritonitis with 50 μg (solved in 200 μl sterile PBS) of either CD95-RB69 or a mutated form, CD95-(R87S)-RB69, which is unable to bind CD95L.
Stainings were performed on cells derived from bone marrow, peritoneum, blood or spinal cord tissue. For preparation of mouse cells derived from spinal cord tissue, the animals were perfused with HBSS to remove blood from the organs. Then the spinal cord (1 cm around the lesion site) was isolated and lysed for 3 h in thermolysin (0.5 mg/ml, Sigma #T-7902) on a shaker at 37° C. Tissue was incubated for 10 more minutes in trypsin 0.5%-EDTA (Invitrogen #25300096) and finally homogenized by passing 10 times through a Pasteur pipette and through a 40 μm cell strainer (BD #352340).
For all stainings, cells were resuspended in FACS buffer (PBS, 0.2% NaN3) and preincubated in Fc block for 10 minutes before stained with the respective antibodies 30 minutes on ice. For intracellular stainings blood samples were fixed with 4% PFA after Ery Lysis and permeabilized with methanol before the staining. Samples were run on a FACSCantoll flow cytometer (BD) and analyzed using FACSDiva (BD) software or FlowJo software. For all FACS analyses done on cells derived from spinal cord tissue 1,000,000 events were counted.
For all tissue analysis, neutrophils were identified as CD45 positive, GR-1 high-positive and their characteristic forward (FSC) and side scatter (SSC) profile. […]

peritoneum = assay: Thioglycolate-induced peritonitis, infiltration of neutrophils; assay type: in vivo, mice
Procedure: as §3
For thioglycolate-induced peritonitis, 1 ml of 3% thioglycolate broth (Fluka #70157) was injected i.p. in CD95L^f/f;LysMcre and CD95L^f/f mice or in wt mice acutely treated with CD95-RB69 or its respective control. In this model, neutrophils are known to start infiltrating the peritoneum within the first hours, whereas macrophage infiltration peaks at 72 h. At the indicated times, mice were sacrificed, blood samples collected and peritoneal cavities lavaged with 10 ml sterile Hanks balanced salt solution (HBSS; Invitrogen #14170-138) containing 0.25% bovine serum albumin (Roche #10735094001). Total cell counts were performed in a Neubauer hematocytometer (Brand), and differential cell counts were carried out by flow cytometry. Results are expressed as the absolute number of neutrophils or macrophages×10^5/cavity. For every experiment performed, blood immune cell populations were analyzed by the appropriate cell markers.

injured spinal cord [3] = assay: Gene expression profiling (microarray) of spinal cord 24 h after SCI; assay type: in vivo, mice; settings: compared to vehicle-treated
Procedure: as §3
For tissue, spinal cords were dissected out and RNA was extracted with the mirVana microRNA Extraction Kit essentially according to the manufacturer's protocol (Ambion #AM1560). mRNA of injured mice were represented as normalized to the respective uninjured animals. Cells from peritoneal exudates or bone-marrow derived cells were washed with PBS and taken up in RLT-buffer containing β-mercaptoethanol. RNA was extracted using the RNeasy Mini Kit (Qiagen, #74104).
.Cel files were generated using Affymetrix software and imported into Chipinspector. The data were analyzed by Genomatix Chipinspector as described by the manufacturer's guidelines (Genomatix GmbH, Munich, Germany, http://www.genomatix.de). dChip software was used for hierarchical clustering of datasets (http://biosuntharvard.edu/complab/dchip/). A 5% p-value was applied as a cut-off. […]

[4] = 24 h after SCI, 50 μg i.v. 5 minutes after SCI, 1,000,000 events counted

C[C@H]1C[C@@H]2[C@H]([C@@H](O)C[C@@]3(C)[C@H]2CC[C@]3(O)C(=O)COC(=O)CCC(=O)O)[C@@]2(C)C=CC(=O)C=C12 [MPSS, methylprednisolone sodium succinate]
motor and sensory function of spinal injured patients [1]: significantly improved motor and sensory function

B1: CD95-RB69: CD95L-neutralizing trimeric fusion protein: human CD95-ECD (M1-E168) fused to bacteriophage RB69 fibritin foldon domain, with streptag-II (protein)
chain: MVGIWTLLPLVLTSVARLSSKSVNAQVTDINSKGLELRKTVTTVETQNLEGLHHDGQFCHKPCPPGERKARDCTVNGDEPDCVPCQEGKEYTDKAHFSSKCRRCRLCDEGHGLEVEINCTRTQNTKCRCKPNFFCNSTVCEHCDPCTKCEHGIIKECTLTSNTKCKEEGSSGSSGSSGSGYIEDAPSDGKFYVRKDGAWVELPTASGPSSSSSSAWSHPQFEK
modifications: CD95-RB69 fusion protein
notes: CD95L-neutralizing trimeric fusion protein: human CD95-ECD (M1-E168) fused to bacteriophage RB69 fibritin foldon domain, with streptag-II
neutralisation of the apoptotic activity of human CD95L (human CD95L): efficiently neutralises | neutralisation of the apoptotic activity of mouse CD95L (mouse CD95L): efficiently neutralises | CD45 cells in injured spinal cord, Events ± SEM (injured spinal cord [2]; [4]): CD45: 698 ± 57 Events | Neutrophils in injured spinal cord, Events ± SEM (injured spinal cord [2]; [4]): Neutrophils: 400 ± 54 Events | infiltration of neutrophils into the lesion site (in words) (injured spinal cord [2]; 24 hours after injury, systemic administration): decreased; also recorded: reduced | Neutrophil number ± SEM in peritoneal cavity (peritoneum; 6 h after thioglycolate, 50 μg i.v. 5 minutes after induction): 13.92 ± 1.46 *10^5 | infiltration of neutrophils into the peritoneum (in words) (peritoneum; 6 hours after thioglycolate injection): significantly reduced; also recorded: Reduced infiltration | expression of genes involved in apoptosis (injured spinal cord [3]): reduced; also recorded: down-regulation | expression of genes involved in the immune response (injured spinal cord [3]): down-regulation
